Experimental data: patent US20250188166A1

Experiments:
[1] = target: Composition A (LZM-009 conjugated to IL-18 polypeptide SEQ ID NO: 30) (human) (UniProt Q14116)
[2] = target: Composition C (Trastuzumab/Herceptin conjugated to IL-18 polypeptide SEQ ID NO: 30) (human)
[3] = target: Composition D (LZM-009 conjugated to IL-18 polypeptide SEQ ID NO: 31) (human) (UniProt Q14116)
[4] = target: IL-18 polypeptide SEQ ID NO: 31 (C38A, C76A, C127A) (human) (UniProt Q14116)
[5] = target: native IL-18 wild-type (SEQ ID NO: 1) (human) (UniProt Q14116)
[6] = target: IL-18 polypeptide C143 (human) (UniProt Q14116); experiment: cell-based or functional assay
[7] = target: IL-18 polypeptide C144 (human) (UniProt Q14116); experiment: cell-based or functional assay
[8] = target: IL-18 polypeptide C145 (human) (UniProt Q14116); experiment: cell-based or functional assay
[9] = target: IL-18 polypeptide C146 (SEQ ID NO: 68) (human) (UniProt Q14116); experiment: cell-based or functional assay
[10] = target: IL-18 polypeptide C147 (human) (UniProt Q14116); experiment: cell-based or functional assay
[11] = target: IL-18 polypeptide C148 (human) (UniProt Q14116); experiment: cell-based or functional assay
[12] = target: IL-18 polypeptide C149 (human) (UniProt Q14116); experiment: cell-based or functional assay
[13] = target: IL-18 polypeptide C150 (human) (UniProt Q14116); experiment: cell-based or functional assay
[14] = target: IL-18 polypeptide C151 (human) (UniProt Q14116); experiment: cell-based or functional assay
[15] = target: IL-18 polypeptide C152 (human) (UniProt Q14116); experiment: cell-based or functional assay
[16] = target: IL-18 polypeptide C153 (human) (UniProt Q14116); experiment: cell-based or functional assay
[17] = target: IL-18 polypeptide C154 (human) (UniProt Q14116); experiment: cell-based or functional assay
[18] = target: IL-18 polypeptide C155 (human) (UniProt Q14116); experiment: cell-based or functional assay
[19] = target: IL-18 polypeptide C156 (human) (UniProt Q14116); experiment: cell-based or functional assay
[20] = target: IL-18 polypeptide C157 (human) (UniProt Q14116); experiment: cell-based or functional assay
[21] = target: IL-18 polypeptide C158 (human) (UniProt Q14116); experiment: cell-based or functional assay
[22] = target: IL-18 polypeptide C159 (human) (UniProt Q14116); experiment: cell-based or functional assay
[23] = target: IL-18 polypeptide C160 (human) (UniProt Q14116); experiment: cell-based or functional assay
[24] = target: IL-18 polypeptide C161 (human) (UniProt Q14116); experiment: cell-based or functional assay
[25] = target: IL-18 polypeptide C162 (human) (UniProt Q14116); experiment: cell-based or functional assay
[26] = target: IL-18 polypeptide C163 (human) (UniProt Q14116); experiment: cell-based or functional assay
[27] = target: IL-18 polypeptide C164 (human) (UniProt Q14116); experiment: cell-based or functional assay
[28] = target: IL-18 polypeptide C165 (human) (UniProt Q14116); experiment: cell-based or functional assay
[29] = target: IL-18 polypeptide C166 (human) (UniProt Q14116); experiment: cell-based or functional assay
[30] = target: IL-18 polypeptide C167 (human) (UniProt Q14116); experiment: cell-based or functional assay
[31] = target: IL-18 polypeptide C168 (human) (UniProt Q14116); experiment: cell-based or functional assay
[32] = target: IL-18 polypeptide SEQ ID NO: 34 (E06K, K53A, S55A) (human) (UniProt Q14116); experiment: cell-based or functional assay
[33] = target: IL-18 polypeptide SEQ ID NO: 35 (Y01G, F02A, E06K, M51G, K53A, D54A, S55A, T63A) (human) (UniProt Q14116); experiment: cell-based or functional assay
[34] = target: IL-18 polypeptide SEQ ID NO: 36 (K53A) (human) (UniProt Q14116); experiment: cell-based or functional assay
[35] = target: IL-18 polypeptide SEQ ID NO: 37 (S55A) (human) (UniProt Q14116); experiment: cell-based or functional assay
[36] = target: IL-18 polypeptide SEQ ID NO: 38 (E06K) (human) (UniProt Q14116); experiment: cell-based or functional assay
[37] = target: IL-18 polypeptide SEQ ID NO: 39 (E06K, K53A) (human) (UniProt Q14116); experiment: cell-based or functional assay
[38] = target: IL-18 polypeptide SEQ ID NO: 4 (E6K, C38A, K53A, C68A, M86C) (human) (UniProt Q14116); experiment: cell-based or functional assay
[39] = target: IL-18 polypeptide SEQ ID NO: 40 (E06K, S55A) (human) (UniProt Q14116); experiment: cell-based or functional assay
[40] = target: IL-18 polypeptide SEQ ID NO: 41 (K53A, S55A) (human) (UniProt Q14116); experiment: cell-based or functional assay
[41] = target: IL-18 polypeptide SEQ ID NO: 42 (E06K, K53A, S55A, T63A) (human) (UniProt Q14116); experiment: cell-based or functional assay
[42] = target: IL-18 polypeptide SEQ ID NO: 43 (E06K, K53A, S55A, Y01G) (human) (UniProt Q14116); experiment: cell-based or functional assay
[43] = target: IL-18 polypeptide SEQ ID NO: 46 (E06K, K53A, S55A, M51G) (human) (UniProt Q14116); experiment: cell-based or functional assay
[44] = target: IL-18 polypeptide SEQ ID NO: 47 (C38S, C68S, C76S, C127S) (human) (UniProt Q14116); experiment: cell-based or functional assay
[45] = target: IL-18 polypeptide SEQ ID NO: 48 (C38S, C68S, C76S, C127S, K70C) (human) (UniProt Q14116); experiment: cell-based or functional assay
[46] = target: IL-18 polypeptide SEQ ID NO: 5 (E6K, V11I, C38A, K53A, T63A, C68A, C76A, C127A, M86C) (human) (UniProt Q14116); experiment: cell-based or functional assay
[47] = target: IL-18 polypeptide SEQ ID NO: 50 (E06K, K53A, T63A) (human) (UniProt Q14116); experiment: cell-based or functional assay
[48] = target: IL-18 polypeptide SEQ ID NO: 51 (T63A) (human) (UniProt Q14116); experiment: cell-based or functional assay
[49] = target: IL-18 polypeptide SEQ ID NO: 52 (E06K, T63A) (human) (UniProt Q14116); experiment: cell-based or functional assay
[50] = target: IL-18 polypeptide SEQ ID NO: 53 (K53A, T63A) (human) (UniProt Q14116); experiment: cell-based or functional assay
[51] = target: IL-18 polypeptide SEQ ID NO: 54 (E06K, K53A, C38S, C68S, C76S, C127S, K70C) (human) (UniProt Q14116); experiment: cell-based or functional assay
[52] = target: IL-18 polypeptide SEQ ID NO: 55 (K53A, T63A, C38S, C68S, C76S, C127S, K70C) (human) (UniProt Q14116); experiment: cell-based or functional assay
[53] = target: IL-18 polypeptide SEQ ID NO: 57 (E6K, C38S, K53A) (human) (UniProt Q14116); experiment: cell-based or functional assay
[54] = target: IL-18 polypeptide SEQ ID NO: 59 (E6K, C38A, K53A) (human) (UniProt Q14116); experiment: cell-based or functional assay
[55] = target: IL-18 polypeptide SEQ ID NO: 6 (E6K, V11I, C38A, K53A, T63A, C68A, C76A, C127A, D98C) (human) (UniProt Q14116); experiment: cell-based or functional assay
[56] = target: IL-18 polypeptide SEQ ID NO: 60 (E6K, C38Q, K53A) (human) (UniProt Q14116); experiment: cell-based or functional assay
[57] = target: IL-18 polypeptide SEQ ID NO: 62 (E6K, C38A, K53A, C127A) (human) (UniProt Q14116); experiment: cell-based or functional assay
[58] = target: IL-18 polypeptide SEQ ID NO: 9 (E6K, C38A, K53A, C68A, D98C) (human) (UniProt Q14116); experiment: cell-based or functional assay
[59] = target: native IL-18 wild-type (SEQ ID NO: 1) (human) (UniProt Q14116); experiment: cell-based or functional assay

Fc fused human IL-18 binding protein isoform a (from UniProt O95998 31-194) (Fc fusion)
IC50 (read off the curve) [1]: 8 nM
IC50 (read off the curve) [2]: 10 nM
IC50 (read off the curve) [3]: 0.1 nM
IC50 (read off the curve) [4]: 0.3 nM
IC50 (read off the curve) [5]: 1 nM
IC50 of IL-18BP on IFNγ secretion by NK92 cells [6]: 1.62 nM
IC50 of IL-18BP on IFNγ secretion by NK92 cells [7]: 7.52 nM
IC50 of IL-18BP on IFNγ secretion by NK92 cells [8]: 10.2 nM
IC50 of IL-18BP on IFNγ secretion by NK92 cells [9]: 733 nM
IC50 of IL-18BP on IFNγ secretion by NK92 cells [10]: 47.6 nM
IC50 of IL-18BP on IFNγ secretion by NK92 cells [11]: 5.05 nM
IC50 of IL-18BP on IFNγ secretion by NK92 cells [12]: 1.17 nM
IC50 of IL-18BP on IFNγ secretion by NK92 cells [13]: 21.3 nM
IC50 of IL-18BP on IFNγ secretion by NK92 cells [14]: 3.62 nM
IC50 of IL-18BP on IFNγ secretion by NK92 cells [15]: 7.85 nM
IC50 of IL-18BP on IFNγ secretion by NK92 cells [16]: 2.22 nM
IC50 of IL-18BP on IFNγ secretion by NK92 cells [17]: 3.71 nM
IC50 of IL-18BP on IFNγ secretion by NK92 cells [18]: 3.23 nM
IC50 of IL-18BP on IFNγ secretion by NK92 cells [19]: 0.681 nM
IC50 of IL-18BP on IFNγ secretion by NK92 cells [20]: 6.08 nM
IC50 of IL-18BP on IFNγ secretion by NK92 cells [21]: 3.98 nM
IC50 of IL-18BP on IFNγ secretion by NK92 cells [22]: 1.81 nM
IC50 of IL-18BP on IFNγ secretion by NK92 cells [23]: 3.18 nM
IC50 of IL-18BP on IFNγ secretion by NK92 cells [24]: 1.07 nM
IC50 of IL-18BP on IFNγ secretion by NK92 cells [25]: 7.29 nM
IC50 of IL-18BP on IFNγ secretion by NK92 cells [26]: 0.823 nM
IC50 of IL-18BP on IFNγ secretion by NK92 cells [27]: 0.456 nM
IC50 of IL-18BP on IFNγ secretion by NK92 cells [28]: 0.885 nM
IC50 of IL-18BP on IFNγ secretion by NK92 cells [29]: 0.44 nM
IC50 of IL-18BP on IFNγ secretion by NK92 cells [30]: 0.809 nM
IC50 of IL-18BP on IFNγ secretion by NK92 cells [31]: 0.176 nM
IC50 of IL-18BP on IFNγ secretion by NK92 cells [32]: 229 nM
IC50 of IL-18BP on IFNγ secretion by NK92 cells [33]: > 55 nM
IC50 of IL-18BP on IFNγ secretion by NK92 cells [34]: 27.3 nM
IC50 of IL-18BP on IFNγ secretion by NK92 cells [35]: 4.46 nM
IC50 of IL-18BP on IFNγ secretion by NK92 cells [36]: 7.79 nM
IC50 of IL-18BP on IFNγ secretion by NK92 cells [37]: > 703 nM
IC50 of IL-18BP on IFNγ secretion by NK92 cells [38]: 396 nM
IC50 of IL-18BP on IFNγ secretion by NK92 cells [39]: 15 nM
IC50 of IL-18BP on IFNγ secretion by NK92 cells [40]: 37.3 nM
IC50 of IL-18BP on IFNγ secretion by NK92 cells [41]: 1060 nM
IC50 of IL-18BP on IFNγ secretion by NK92 cells [42]: 27.8 nM
IC50 of IL-18BP on IFNγ secretion by NK92 cells [43]: 0.189 nM
IC50 of IL-18BP on IFNγ secretion by NK92 cells [44]: 0.444 nM
IC50 of IL-18BP on IFNγ secretion by NK92 cells [45]: 0.114 nM
IC50 of IL-18BP on IFNγ secretion by NK92 cells [46]: 62.4 nM
IC50 of IL-18BP on IFNγ secretion by NK92 cells [47]: > 1000 nM
IC50 of IL-18BP on IFNγ secretion by NK92 cells [48]: 0.239 nM
IC50 of IL-18BP on IFNγ secretion by NK92 cells [49]: 47.1 nM
IC50 of IL-18BP on IFNγ secretion by NK92 cells [50]: 18.2 nM
IC50 of IL-18BP on IFNγ secretion by NK92 cells [51]: 23.5 nM
IC50 of IL-18BP on IFNγ secretion by NK92 cells [52]: > 1000 nM
IC50 of IL-18BP on IFNγ secretion by NK92 cells [53]: 146 nM
IC50 of IL-18BP on IFNγ secretion by NK92 cells [54]: 654 nM
IC50 of IL-18BP on IFNγ secretion by NK92 cells [55]: 5.85 nM
IC50 of IL-18BP on IFNγ secretion by NK92 cells [56]: 780 nM
IC50 of IL-18BP on IFNγ secretion by NK92 cells [57]: 284 nM
IC50 of IL-18BP on IFNγ secretion by NK92 cells [58]: 961 nM
IC50 of IL-18BP on IFNγ secretion by NK92 cells [59]: 1.47 nM
